Values of other authors in paper PMC8588233.
Like-named read-outs stand apart in the source and are kept apart here. Values belong to the substance of their own block, whether it stands above or below them.

Experiments:
HER2 (Homo sapiens) [1] = molecular target: HER2 (Homo sapiens) (UniProt P04626)
HER2 (Homo sapiens) [2] = molecular target: HER2 (Homo sapiens) (UniProt P04626); remark: listed apart in the source
HER2 (Homo sapiens) [3] = molecular target: HER2 (Homo sapiens) (UniProt P04626); remark: listed apart in the source

Kd (HER2 (Homo sapiens) [1]): 0.295 µM
Substance: KCCYSL peptide

Kd (HER2 (Homo sapiens) [2]): 0.395 µM
Substance: AHNP

Kd (HER2 (Homo sapiens) [3]): 0.3 µM
Substance: AHNP (111In-DTPA-peptide-PEG)
